Results taken from paper PMC9844003.

Experiments:
[1] = target: extracellular domain of CD47 fused to a His(×6)-Avi-tag; assay: ELISA; details: chain shown with the change, read off a plot
[2] = target: extracellular domain of CD47 fused to a His(×6)-Avi-tag (human); assay: ELISA; CD47-ECD coated on plates; serially diluted IgGs, detected with anti-human IgG Fc-HRP; pH 6.8 (of a series from pH 6.2 to 7.6)
[3] = target: extracellular domain of CD47 fused to a His(×6)-Avi-tag (human); assay: ELISA; CD47-ECD coated on plates; serially diluted IgGs, detected with anti-human IgG Fc-HRP; pH 7.6 (of a series from pH 6.2 to 7.6)

Sequence of extracellular domain of CD47 fused to a His(×6)-Avi-tag (chain, as listed by the source): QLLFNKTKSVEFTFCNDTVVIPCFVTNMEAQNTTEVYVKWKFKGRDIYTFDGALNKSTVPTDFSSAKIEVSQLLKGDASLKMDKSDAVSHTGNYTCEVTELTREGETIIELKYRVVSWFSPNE

B1: BC31M4 (hIgG1 form) L:H38R; L:H107R (protein)
chain 1: QVQLVQSGAEVKKPGASVKVSCKASGYTFTSYGISWVRQAPGQGLEWMGWISAYNGNTNYAQKLQGRVTMTTDTSTSTAYMELRSLRSDDTAVYYCARGAVYFDYWGQGTLVTVSS
chain 2: EIVLTQSPATLSLSPGERATLSCRASQSLSRNRLAWYQQKPGQPPRLLIHWASTRESGVPDRFSGSGSGTDFTLTISSLQAEDVAVYYCQQRTQNTWTFGQGTKVEIK
[1]; pH 6.8, parent: est. -1.3
  EC50: 1.4 log10(nM)
[1]; pH 7.4, parent: est. -0.1
  EC50: 1.9 log10(nM)

B2: BC31M4 (hIgG1 form) L:H38R; L:H55R (protein)
chain 1: QVQLVQSGAEVKKPGASVKVSCKASGYTFTSYGISWVRQAPGQGLEWMGWISAYNGNTNYAQKLQGRVTMTTDTSTSTAYMELRSLRSDDTAVYYCARGAVYFDYWGQGTLVTVSS
chain 2: EIVLTQSPATLSLSPGERATLSCRASQSLSRNRLAWYQQKPGQPPRLLIRWASTRESGVPDRFSGSGSGTDFTLTISSLQAEDVAVYYCQQHTQNTWTFGQGTKVEIK
[1]; pH 6.8, parent: est. -1.3
  EC50: -0.9 log10(nM)
[1]; pH 7.4, parent: est. -0.1
  EC50: -0.1 log10(nM)

B3: BC31M4 (hIgG1 form) (antibody, V domains shown)
VH: QVQLVQSGAEVKKPGASVKVSCKASGYTFTSYGISWVRQAPGQGLEWMGWISAYNGNTNYAQKLQGRVTMTTDTSTSTAYMELRSLRSDDTAVYYCARGAVYFDYWGQGTLVTVSS
VL: EIVLTQSPATLSLSPGERATLSCRASQSLSRNHLAWYQQKPGQPPRLLIHWASTRESGVPDRFSGSGSGTDFTLTISSLQAEDVAVYYCQQHTQNTWTFGQGTKVEIK
[2]
  EC50: 0.03 nM
[3]
  EC50: 2.12 nM

B4: BC31M4 (hIgG1 form) L:H55R; L:H107R (protein)
chain 1: QVQLVQSGAEVKKPGASVKVSCKASGYTFTSYGISWVRQAPGQGLEWMGWISAYNGNTNYAQKLQGRVTMTTDTSTSTAYMELRSLRSDDTAVYYCARGAVYFDYWGQGTLVTVSS
chain 2: EIVLTQSPATLSLSPGERATLSCRASQSLSRNHLAWYQQKPGQPPRLLIRWASTRESGVPDRFSGSGSGTDFTLTISSLQAEDVAVYYCQQRTQNTWTFGQGTKVEIK
[1]; pH 6.8, parent: est. -1.3
  EC50: 0.4 log10(nM)
[1]; pH 7.4, parent: est. -0.1
  EC50: 1.3 log10(nM)

B5: BC31M4 (hIgG1 form) L:H38R; L:H55R; L:H107R (protein)
chain 1: QVQLVQSGAEVKKPGASVKVSCKASGYTFTSYGISWVRQAPGQGLEWMGWISAYNGNTNYAQKLQGRVTMTTDTSTSTAYMELRSLRSDDTAVYYCARGAVYFDYWGQGTLVTVSS
chain 2: EIVLTQSPATLSLSPGERATLSCRASQSLSRNRLAWYQQKPGQPPRLLIRWASTRESGVPDRFSGSGSGTDFTLTISSLQAEDVAVYYCQQRTQNTWTFGQGTKVEIK
[1]; pH 6.8, highest antibody concentration, Log[Ab] (nM) about 3.5
  response: 2 OD450
